Tests used:
Type in all cases: binding
Set-up in all cases: key: cells having the interaction would survive (+); cells not having the interaction would die (−) on selective media (−ADE, −HIS)
H.sapiens Rad51 = molecular target: T1, H.sapiens Rad51 (Homo sapiens, UniProt Q06609); assay: Y2H assay RAD51/SEQ ID NO.: 5 pair
T1 construct: expressed in transfected cells
T1 sequence (Q06609 1-339): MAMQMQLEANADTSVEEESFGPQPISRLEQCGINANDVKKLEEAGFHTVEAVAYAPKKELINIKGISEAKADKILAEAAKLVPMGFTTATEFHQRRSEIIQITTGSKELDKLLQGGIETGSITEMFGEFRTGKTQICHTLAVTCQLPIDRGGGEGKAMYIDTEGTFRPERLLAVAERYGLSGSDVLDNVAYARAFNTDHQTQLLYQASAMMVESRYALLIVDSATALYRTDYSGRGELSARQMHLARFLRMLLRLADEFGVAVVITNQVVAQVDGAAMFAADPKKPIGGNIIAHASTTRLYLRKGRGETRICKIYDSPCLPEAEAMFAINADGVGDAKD
Experimental: RAD51-binding peptides were tested for ability to bind RAD51 of several different species using a “conventional” Y2H assay, where interaction between the two-hybrid pair drove expression of ADE2 and HIS genes.

G.gallus Rad51 = molecular target: T2, G.gallus Rad51 (Gallus gallus, UniProt P37383); assay: Y2H assay RAD51/SEQ ID NO.: 5 pair
T2 construct: expressed in transfected cells
T2 sequence (P37383 1-339): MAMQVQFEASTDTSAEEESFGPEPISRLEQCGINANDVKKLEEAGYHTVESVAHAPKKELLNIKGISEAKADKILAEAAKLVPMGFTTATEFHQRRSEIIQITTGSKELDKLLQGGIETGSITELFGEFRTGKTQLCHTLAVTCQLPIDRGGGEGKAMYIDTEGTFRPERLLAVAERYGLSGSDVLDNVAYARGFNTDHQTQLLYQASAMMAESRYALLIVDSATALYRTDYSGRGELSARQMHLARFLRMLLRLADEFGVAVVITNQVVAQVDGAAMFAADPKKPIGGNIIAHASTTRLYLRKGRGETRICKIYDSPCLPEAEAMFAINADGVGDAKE
Experimental: (§1) RAD51-binding peptides were tested for ability to bind RAD51 of several different species using a “conventional” Y2H assay, where interaction between the two-hybrid pair drove expression of ADE2 and HIS genes. In this Y2H assay the two-hybrid pair was RAD51 and the compound 5 peptide sequence (SEQ ID NO.: 5), so that cells having the interaction would survive (+) and cells not having the interaction would die (−) on selective media (−ADE, −HIS).

K.lactis Rad51 = assay: Y2H assay RAD51/SEQ ID NO.: 5 pair
Experimental: as §1

K.pastoris Rad51 = assay: Y2H assay RAD51/SEQ ID NO.: 5 pair
Experimental: as §1

S.cerevisiae Rad51 = molecular target: T3, S.cerevisiae Rad51 (Saccharomyces cerevisiae, UniProt P25454); assay: Y2H assay RAD51/SEQ ID NO.: 5 pair
T3 construct: expressed in transfected cells
T3 sequence (P25454 whole entry): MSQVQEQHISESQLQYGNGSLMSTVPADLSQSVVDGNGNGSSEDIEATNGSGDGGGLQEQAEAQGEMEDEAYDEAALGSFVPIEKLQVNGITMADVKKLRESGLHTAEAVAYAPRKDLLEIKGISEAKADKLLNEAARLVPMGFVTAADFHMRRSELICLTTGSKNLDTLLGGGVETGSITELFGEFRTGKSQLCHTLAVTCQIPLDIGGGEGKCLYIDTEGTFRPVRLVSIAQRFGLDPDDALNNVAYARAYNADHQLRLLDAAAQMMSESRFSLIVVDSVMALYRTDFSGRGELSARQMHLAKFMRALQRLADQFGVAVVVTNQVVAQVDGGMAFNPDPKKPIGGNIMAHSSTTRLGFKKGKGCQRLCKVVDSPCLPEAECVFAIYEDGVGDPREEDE
Experimental: as §1

S.pombe Rad51 = molecular target: T4, S.pombe Rad51 (Schizosaccharomyces pombe, UniProt P36601); assay: Y2H assay RAD51/SEQ ID NO.: 5 pair
T4 construct: expressed in transfected cells
T4 sequence (P36601 whole entry, looked up): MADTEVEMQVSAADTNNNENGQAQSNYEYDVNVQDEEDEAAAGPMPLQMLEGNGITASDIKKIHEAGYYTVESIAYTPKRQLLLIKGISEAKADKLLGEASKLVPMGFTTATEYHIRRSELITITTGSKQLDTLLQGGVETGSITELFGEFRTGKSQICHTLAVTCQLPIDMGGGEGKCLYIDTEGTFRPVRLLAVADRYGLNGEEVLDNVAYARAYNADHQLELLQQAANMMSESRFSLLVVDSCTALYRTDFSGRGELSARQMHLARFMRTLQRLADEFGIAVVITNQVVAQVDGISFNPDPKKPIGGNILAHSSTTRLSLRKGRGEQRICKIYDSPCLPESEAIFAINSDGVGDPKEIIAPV
Experimental: as §1

[1] = molecular target: T5, S.cerevisiae Rad51 (1-226) + H.sapiens Rad51 (168-339) (UniProt P25454+Q06609); assay: Y2H assay, RAD51 hybrid constructs
T5 construct: S.cerevisiae Rad51 (1-226) +; H.sapiens Rad51 (168-339); expressed in transfected cells
Experimental: as §1
(§2) Based on sequence comparisons of S. cerevisiae and H. sapiens RAD51, multiple cerevisiae-sapiens hybrid constructs of RAD51 were constructed and tested for their ability to bind RAD51-binding peptide in the same RAD51/SEQ ID NO.: 5 hybrid system described above.

[2] = molecular target: T6, S.cerevisiae Rad51 (1-250) + H.sapiens Rad51 (190-339) (UniProt P25454+Q06609); assay: Y2H assay, RAD51 hybrid constructs
T6 construct: S.cerevisiae Rad51 (1-250) +; H.sapiens Rad51 (190-339); expressed in transfected cells
Experimental: as §1, §2

[3] = molecular target: T7, S.cerevisiae Rad51 (1-278) + H.sapiens Rad51 (218-339) (UniProt P25454+Q06609); assay: Y2H assay, RAD51 hybrid constructs
T7 construct: S.cerevisiae Rad51 (1-278) +; H.sapiens Rad51 (218-339); expressed in transfected cells
T7 sequence (P25454 1-278): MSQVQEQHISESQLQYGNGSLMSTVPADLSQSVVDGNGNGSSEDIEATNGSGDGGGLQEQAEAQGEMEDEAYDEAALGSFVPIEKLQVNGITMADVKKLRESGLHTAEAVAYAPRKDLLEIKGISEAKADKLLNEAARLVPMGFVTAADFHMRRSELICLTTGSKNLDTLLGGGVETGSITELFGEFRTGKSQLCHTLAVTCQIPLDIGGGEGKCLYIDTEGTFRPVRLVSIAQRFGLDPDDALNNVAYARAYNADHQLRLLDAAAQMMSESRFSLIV
T7 sequence (Q06609 218-339): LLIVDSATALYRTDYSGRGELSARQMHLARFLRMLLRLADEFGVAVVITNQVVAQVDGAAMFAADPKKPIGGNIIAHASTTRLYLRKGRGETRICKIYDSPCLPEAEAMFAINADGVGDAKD
Experimental: as §1, §2

Sequence: KRRRRRRRKRLGVRLRVSRML [SEQ ID NO.: 5]
- Compound 5 Sequence Binding (H.sapiens Rad51): +
- Compound 5 Sequence Binding (G.gallus Rad51): +
- Compound 5 Sequence Binding (K.lactis Rad51): −
- Compound 5 Sequence Binding (K.pastoris Rad51): +
- Compound 5 Sequence Binding (S.cerevisiae Rad51): −
- Compound 5 Sequence Binding (S.pombe Rad51): +
- SEQ ID NO.: 5 Binding [1]: +
- SEQ ID NO.: 5 Binding [2]: +
- SEQ ID NO.: 5 Binding [3]: −
